From the DeepSol protein solubility set

assay: soluble on expression in E. coli; label from the status in PepcDB or PDB records

Sequence | soluble on expression in E. coli
MAFNSALFDGMVIFSEVVTSGSFTQAALNSGHSTSYISKEIGKLEERLGVRLLHRTTRTLRLTPEGELYFQQCQQLIEDAQMAENSITGQQEKPKGRLKVSCPVGFALSRLRPILGKFTDLYPDIILELDLNDKKIDIVAEGFDMAIRASHQLEDSSLISRRFLRSKAITIASPGYLKKHGAPLYPHDLSSHKTIGYAYVKQGAIWDFFDKNKQPFSVQLNSQVITNNSFMALSLCLAEQGITRIPHFHLTDELETGKLVELFADYPKLTIDIFMVYPSRKHMSAKVRCFMDFISEHLGD | not soluble
MTQPLRQYREKRDFRATAEPAGAARRPRAAARASEGLSFVIQRHQARRLHYDFRLEIDGVLVSWAVPKGPSRDPSVKRLAVHVEDHPLEYGGFSGDIPKGQYGAGHVDIWDSGVWIPRGDPRQGLRRGKLHFALRGRRLAGDWVLVRMSGEQDQWLLRKEDDEALEHHHHHH | soluble
MAHHHHHHMGTLEAQTQGPGSMSFFLTTPAAIDLGVNIDHVATLRNARGTAYPDPVRAALAAEDAGADAITLHLREDRRHIVDADVRTLRPRVKTRMNLECAVTPEMLDIACEIRPHDACLVPEKRSELTTEGGLDVVGHFDAVRAACKQLADAGVRVSLFIDPDEAQIRAAHETGAPVIELHTGRYADAHDAAEQQREFERIATGVDAGIALGLKVNAGHGLHYTNVQAIAALPGIAELNIGHAIVAHAVFVGWDNAVREMKAIMVAARVAALHGGR | soluble
MGSDKIHHHHHHMIALGIEGTAWSLSIGVVDEEGVIALENDPYIPKEGGIHPREASQHHSERLPSLLSRVFEKVDKNSIDVVAFSQGPGMGPCLRVVATAARLLAIKLEKPLVGVNHCLAHVEVGRWQTGARKPVSLYVSGGNSQVIARRGNRYRVFGETLDIGIGNALDKLARHMGLKHPGGPKIEELAKKGQKYHFLPYVVKGMDFSFSGMVTAAQRLFDSGVRMEDVAFSFQETAFAMLTEVTERALAYLDLNEVLLVGGVAANKRLQEMLRIMCEDRGAKFYVPPKELAGDNGAMIAYTGLLMYKHGHQTPVEKSYVRPDFRIEDVEVNWD | not soluble
MGAIEDIYEDLETDVPEEEFREAVEEKVEQMGGLADEETAAMLLAHELNENEVNAIADIEPGMDEVKFLAKVMAIGDLKTFERDDEDEDGRVINVEAADESGSLRLAFWDGQAVDIDEGKLEVGDVLRVKGRPKDGYNGLEVSVDKAEPDEDATIDVEPGAGSSIDALTMGQSDVTLRGLVLDTDSIRTFDRDDGSEGRVSNLTLGDETGRIRVTLWDDRADRADELDAGAAVEIIDGYVRERDGSLELHVGDQGAVDEVEDDVAFEPDADPIAEVELEETADIAGVVRSADPKRTFDRDDGSEGQVRNVRIQDATGDIRVALWGDKADKDIAPGDEVLAADVEIQDGWQDDKEASASWNSTIVVLDDGADLATGGAGGGASAETTDAEHAGLSSFGDEGDDTDADSSGNEAAAVSAGTGDTSPDGGAQSAGQQVEFTGTVVQTGDPVVLDDGEQTMSVETGERVQLGQEITVRGELRDDRLHAEDVFLEHHHHHH | not soluble
MGSSHHHHHHSSGLVPRGSHMNAPIETDVLILGGGPVGMALALDLAHRQVGHLVVEQTDGTITHPRVGTIGPRSMELFRRWGVAKQIRTAGWPGDHPLDAAWVTRVGGHEVYRIPLGTADTRATPEHTPEPDAICPQHWLAPLLAEAVGERLRTRSRLDSFEQRDDHVRATITDLRTGATRAVHARYLVACDGASSPTRKALGIDAPPRHRTQVFRNILFRAPELRSLLGERAALFFFLMLSSSLRFPLRALDGRGLYRLTVGVDDASKSTMDSFELVRRAVAFDTEIEVLSDSEWHLTHRVADSFSAGRVFLTGDAAHTLSPSGGFGMNTGIGSAADLGWKLAATLRGWAGPGLLATYEEERRPVAITSLEEANVNLRRTMDRELPPGLHDDGPRGERIRAAVAEKLERSGARREFDAPGIHFGHTYRSSIVCGEPETEVATGGWRPSARPGARAPHAWLTPTTSTLDLFGRGFVLLSFGTTDGVEAVTRAFADRHVPLETVTCHAPEIHALYERAHVLVRPDGHVAWRGDHLPAELGGLVDKVRGAA | soluble
MAAAVRSVKGLVAVITGGASGLGLSTAKRLVGQGATAVLLDVPNSEGETEAKKLGGNCIFAPANVTSEKEVQAALTLAKEKFGRIDVAVNCAGIAVAIKTYHEKKNQVHTLEDFQRVINVNLIGTFNVIRLVAGVMGQNEPDQGGQRGVIINTASVAAFEGQVGQAAYSASKGGIVGMTLPIARDLAPIGIRVVTIAPGLFATPLLTTLPDTVRNFLASQVPFPSRLGDPAEYAHLVQMVIENPFLNGEVIRLDGAIRMQP | soluble
MDLSTIKVFEQKLELHREMPMKVVKKELHFSTKGEIDLVDITREVELFVAESGISKGQVLIFVPGATGAVVAIEHEEGLLEDFKKILKEIVPKEKPYLHNRFDDNAHSHIRATLLGPSLVFPIVDGELVRGTWQQIFFVELDTRPRKRRILLQAIGE | soluble
MVNEYKRIVLLRGLECINKHYFSLFKSLLARDLNLERDNQEQYTTIQIANMMEEKFPADSGLGKLIEFCEEVPALRKRAEILKKERSEGETSLEKNGQEAGPATPTSTTSHMLASERGETSATQEETSTAQAGTSTAQAGTSTAQAGTSTA | soluble
MTEHSLWRFSRALHRALNDRQTEELATIIDDNIDWAIYGPIDMFPFFGARQGKAAVLEVCRQIADSVRIYRYHRESVMLGIDSAASMVRYSLTAAGTNRPISVRMALFTQFQNGRLTNLRMVLDTFDLVEQALGRPIHLPKIA | soluble
MVQRVTIAPQGPEFSRFVMGYWRLMDWNMSARQLVSFIEEHLDLGVTTVDHADIYGGYQCEAAFGEALTLAPHLREKLQIVTKCGIATTARAENKLGHYITDRRHIILSAEQSLKNLATDYLDMLLIHRPDPLMDADDVAEAFQHLHQSGKVRHFGVSNFTPAQFTLLQSRLPFTLATNQVEISPVHQPLLLDGTLDQLQQLRIRPMAWSCLGGGRLFNDEAYQPLRQELSVIAQELNASSIEQVVYAWILRLPSQPLPIIGSGKIERVRAALEAETLSLTRQQWFRIRKAALGYDVP | not soluble
MGSDKIHHHHHHEDEKSPVMELQKASAFEPFSQSDFTFNDENAAAEFPEIKWTAADYGVKAVVNYDVTLTNDANAKTVLLGETGTTSLKFTNGQMNTMMAKVGAYPGQTYNFTITLTSKAYDMTADPASNSITFKATLFDPNAVDWKFAYVAVGYPDWDYTNAYLLGDPDGDGVYQGYANFDADGVSYAIIDGSDLTKILAKDQTAAKKGFYGIKVDAEGKVEQTEPLVWGVVGDATSGGWDKDTQMDYDATTRLWTVTTSLLDKEFKFRSNNNWDSDNYGAVSGKESELEGELVAGPNNFKVLKASPYVITMNLTNAGKYSYSMVETTIELSSAEMALPGSYQGWDATKDDCYKVQSAARDFIYTGTFYFDADTKFKFWDAGVWIGMMGPISWDEAKNIGTFVLMPSDGDNIKIETAGYYRVGADMKKLTASLTKTGWEIIGDATPGGWDKGTVMNYDPATKLWSVDVTLVAGEMKFRWDGAWTVNLGGSLGALTQDGANMKVTAGAYTIVLNPDAKTATMTKK | not soluble
GSHMIEPNVISVRLFKRKVGGLGFLVKERVSKPPVIISDLIRGGAAEQSGLIQAGDIILAVNDRPLVDLSYDSALEVLRGIASETHVVLILRGPEGFTTHLETTFTGDGTPKTIRVTQPLGPPTKAV | soluble
MGSDKIHHHHHHMTTPANAVDTALITRRSIRAFLPTPVPRADIEAILEAASRAPSGTNTQPWKVYVVTGESLARLSRALLAAYDDPQRDALYQEEYPYYPHQWVSPYIDRRRKIGWDLYGLLGITKGDKARMHEQHAQNYRFFGAPVGLFFTIDRVMERGSWLDYGMFLQAIMTAARGRGLDTCPQAAFTQFHRVIAEHLGLPPEEQLVCGMSLGFADEDALVNTLRTEREPVERFTRFLD | not soluble
MGSDKIHHHHHHMDIKQLRYFVEVARREHISDAALELNIAQSAISRQITQLEKELGVTLFKRSGRNIILTVEGRQLLSQATQILELMDKTIHSFQQHVSHNQQTIYIGYEESDASQMILPLIQTFEQQSNSTMIPQLTKHDKLLDQILSNQLDLAITEFTPVLERETHLRVMPLFEENYYMYVPKSHPLAMTVHPPLSQFTNQSLYCLEPMTSSIKSKLIEKTKAQVRMISDMKLAQHILSHNKGFIISSQNSLLYDHVNWTKIPLNHTELKRMLCVVMRKDNKKNDINIAWNLICTLLNKSTIY | not soluble
QIVDATEALMHDQNSQRITLNMVNSLALHWWIPRMPRLQTYAPQLDVRLSNLSGRFNLEQEGVDAALVHGNPEEWQDYYCEKLSEDELVLVCSPDLIDHSNPVNLSDILKTYPLIEVTNERRKHDWQVWSDATGVARPKNKKPITFNMSIQAVQATTRRLGVLVTHRLFVKDDIKYGQLIELGEPVINPNQQLYFVCPPHKLKQESFHLLRSWLKQEFA | soluble
MALGGGTFVTQNKILPGSYINFISAKRATSSLSDRGIVAIPLELDWGIDEDVFQVTSDDFEKYSVKYFGYDYTHEKLKGLRDLFKNIRLGYFYKLNKGVKASCTIATAKYSGIRGNDLKVTVTTNIDDNAKFDVVTLLDNKKVDTQIAKVITDLQDNDYITWKKDATLEASAGLVFTGGTNGEAVTGAEYQAFLDKIESYSFNALGCLATTTEIKSLFVEFTKRMRDKVGAKFQTVLYKKSDADYEGVVSVENKIKEIGLVESSLIYWAAGAIAGCDINKSNTNKKYDGEFDVDVNYTQIQLEEALKTGKFIFHKVGDEVHVLEDINTFVSFTDDKNDDFSSNQSVRVLDQIANDIATLFNEKYLGKVPNDKAGRISFWNDVVKHHKELENIRAIEDFKTDDVSVELGNDKKTVIVSDAVKVINAMSKLYMTVSVNLEHHHHHH | soluble
MVYDLIVIGGGSGGMAAARRAARHNAKVALVEKSRLGGTCVNVGCVPKKIMFNAASVHDILENSRHYGFDTKFSFNLPLLVERRDKYIQRLNNIYRQNLSKDKVDLYEGTASFLSENRILIKGTKDNNNKDNGPLNEEILEGRNILIAVGNKPVFPPVKGIENTISSDEFFNIKESKKIGIVGSGYIAVELINVIKRLGIDSYIFARGNRILRKFDESVINVLENDMKKNNINIVTFADVVEIKKVSDKNLSIHLSDGRIYEHFDHVIYCVGRSPDTENLKLEKLNVETNNNYIVVDENQRTSVNNIYAVGDCCMVKKSKEIEDLNLLKLYNEERYLNKKENVTEDIFYNVQLTPVAINAGRLLADRLFLKKTRKTNYKLIPTVIFSHPPIGTIGLSEEAAIQIYGKENVKIYESKFTNLFFSVYDIEPELKEKTYLKLVCVGKDELIKGLHIIGLNADEIVQGFAVALKMNATKKDFDETIPIHPTAAEEFLTLQPWMK | soluble
RSYGPVFEEQPAHTLFPEGSAEEKVTLTCRARANPPATYRWKMNGTELKMGPDSRYRLVAGDLVISNPVKAKDAGSYQCVATNARGTVVSREASLRFGFLQEFSAEERDPVKITEGWGVMFTCSPPPHYPALSYRWLLNEFPNFIPADGRRFVSQTTGNLYIAKTEASDLGNYSCFATSHIDFITKSVFSKFSQLSLAAEDARQYAPSIKAKFPADTYALTGQMVTLECFAFGNPVPQIKWRKLDGSQTSKWLSSEPLLHIQNVDFEDEGTYECEAENIKGRDTYQGRIIIHAQPDWLDVITDTEADIGSDLRWSCVASGKPRPAVRWLRDGQPLASQNRIEVSGGELRFSKLVLEDSGMYQCVAENKHGTVYASAELTVQA | soluble
MRKTLIALMFAAALPTVAMAMPEGHGPMGPMDGPRHSEHMRGKGPFSQLDLSREQRQQIGKLMGEQMHDRKAVVEKYLEKLSPADQKAMKDELTAKHQKTQADIRALLKPEQQKEFDTIVKKQEERRAEWAEFKAWKAQQPQKAQLEHHHHHH | soluble
GPGSMPSKRATRVQKLHEGTGDDNLPVFSIFIEKEGEGQYGRIDIEIFVNKVPKSCEIFLHSCPAALTGDKRVSKPSLVRQHRFLRLTNEGLQVGERPVSRLVSLSDIENEIGRVNHGIGVVSLCRSSNTFDESFFFCLTDNRTELESLDKRHTAFGRVVYGLELLFLLRDALIPYVKEGCVIEGSPYAISDILPKAAT | soluble
